This is an account of results in publication PMC3695523, “Reconstitution and characterization of eukaryotic N6-threonylcarbamoylation of tRNA using a minimal enzyme system” (Nucleic Acids Research, 2013).

Substrate in the data set: C[C@@H](O)[C@H](N)C(=O)O
In words: HPLC nucleoside analysis of t6A formed on tRNA-Ile in reconstituted assay. The format is biochemical, Saccharomyces cerevisiae. The following applies: coupled two-enzyme system: Sua5 plus yeast Qri7 (30-407), 2 uM Sua5/Qri7, 20 uM tRNA-Ile, 2 mM ATP, 1 mM NaHCO3, 5 mM MnCl2, 200 mM NaCl, 50 mM Tris-HCl pH 8.0, ambient temperature, 60 min.

B1: Sua5 (Saccharomyces cerevisiae S288C) (protein)
chain: MYLGRHFLAMTSKALFDTKILKVNPLSIIFSPDAHIDGSLPTITDPETEAALVEAARIIRDTDETVAFPTETVYGLGGSALNDNSVLSIYRAKNRPSDNPLITHVSSIDQLNRKVFNQPHLSGTSLFDNIPSIYRPLISSLWPGPLTILLPVPSSEHSALSKLTTADQPTFAVRIPANPVARALIALSDTPIAAPSANASTRPSPTLASHVYHDLKDKIPIILDGGACKVGVESTVVDGLCNPPTLLRPGGFTYEEIVKLGGEAWSLCKVENKKTVEKGEKVRTPGMKYRHYSPSAKVVLLVPHCEGDGILKGVDRMERLKRLIETELKANSNIKKIAILTSLKLRDSDLQSKIFNEPDFSSKTFIIERLGQSGEEIQTNLFAALRKVDENDKVDLIFVEGINEEGEGLAVMNRLRKAAANNCIQF
notes: full length; N-terminal hexa-histidine or GST tag; expressed in E. coli BL21 (DE3) CodonPlus
By Km is commonly meant the substrate concentration at which the rate is half of its maximum. For B1, the Km turned out to be 110 ± 14 nM.
